Assays:
[1] = biological target: FlhA (Cpn0363), putative flagellar integral membrane protein, full length, bacterial-2-hybrid fusion (C. pneumoniae); assay: two-hybrid; bacterial-2-hybrid in E. coli DHP-1, proteins fused to adenylate cyclase fragments from pT18 and pT25; β-galactosidase activity, in triplicate; cut off for a positive interaction 577 units (table footnote; 677 in the methods)
[2] = biological target: CdsL, putative T3S ATPase tethering protein, bacterial-2-hybrid fusion (C. pneumoniae); assay: as above
[3] = biological target: CopN, putative T3S plug protein, bacterial-2-hybrid fusion (C. pneumoniae); assay: two-hybrid
[4] = biological target: Full length His-Cpn0859 (C. pneumoniae); assay: cross-linking
[5] = biological target: CdsD-FHA-2, bacterial-2-hybrid fusion (positive control) (C. pneumoniae); assay: two-hybrid; bacterial-2-hybrid in E. coli DHP-1, proteins fused to adenylate cyclase fragments from pT18 and pT25; β-galactosidase activity, in triplicate; cut off for a positive interaction 577 units (table footnote; 677 in the methods)

Substance	β-galactosidase activity (units/mg bacteria) [1]	further results
CdsL, putative T3S ATPase tethering protein, bacterial-2-hybrid fusion (natural protein)	832	–
Cpn0322 (putative CdsU, YscU ortholog), bacterial-2-hybrid fusion (natural protein)	780	–
FliF (Cpn0860), putative flagellar MS ring protein, full length, bacterial-2-hybrid fusion (natural protein)	847	–
FliI (Cpn0858), putative flagellar ATPase, bacterial-2-hybrid fusion (enzyme)	943	β-galactosidase activity (units/mg bacteria) [2]: 874; β-galactosidase activity (units/mg bacteria) [3]: 943
Full length His-Cpn0859 (natural protein)	–	stoichiometry N [4]: 2
PknD, bacterial-2-hybrid fusion (positive control) (natural protein)	–	β-galactosidase activity (units/mg bacteria) [5]: 996

Reference: article PMC2830194
